Assay results: article PMC5934386, “Active Site Gate Dynamics Modulate the Catalytic Activity of the Ubiquitination Enzyme E2-25K” (Scientific Reports, 2018)

Target: T1, Human ubiquitin (human, UniProt P0CG48 1-76)
T1 construct: ubiquitin, human; the cut product of the ubiquitin precursors; also called acceptor Ub; source: bought: BostonBiochem (lyophilized)
Test: NMR titration; 2D 1H-15N HSQC at 600 MHz; [U-15N]-E2-25K at 417-428 uM with ubiquitin at 0, 200, 400, 560, 790 and 1600 uM in six samples; PBS buffer (20 mM sodium phosphate, 150 mM NaCl, DTT, pH 7.4); chemical shift changes fit to a 1:1 binding isotherm; kon and koff from 15N lineshape analysis of G173 (Bloch-McConnell, two site exchange)
Details: both partners purified

Kd: 206 ± 30 µM
koff: 5890 s⁻¹
kon: 2.9e+07 M⁻¹ s⁻¹
B1: Human E2-25K (enzyme, UniProt P61086 1-200, looked up)
chain: MANIAVQRIKREFKEVLKSEETSKNQIKVDLVDENFTELRGEIAGPPDTPYEGGRYQLEIKIPETYPFNPPKVRFITKIWHPNISSVTGAICLDILKDQWAAAMTLRTVLLSLQALLAAAEPDDPQDAVVANQYKQNPEMFKQTARLWAHVYAGAPVSSPEYTKKIENLCAMGFDRNAVIVALSSKSWDVETATELLLSN
notes: E2-25K (ubiquitin-conjugating enzyme, UBC core domain and UBA domain), human; called 'intact human E2-25K' in the results; cloned into pHis-parallel1; [U-15N]-labelled for the NMR titration; also called wildtype E2-25K; intact human E2-25K; source: E. coli BL21(DE3)-RIPL, purified (His-prep column, TEV cleavage, Superdex 75)
